Experimental data from patent publication US8987192B2, “Potent and selective mediators of cholesterol efflux” (The Regents of the University of California, priority 2006, dated 2015).
Where no end group is shown, it is not given here. [ ]: non-standard residue; d: D form.

Tests used:
[1] = scaled values = (raw log(P) + 2.061)/4.484; cited from earlier work
ABCA1 [2] = target: ABCA1 (Mus musculus, UniProt P41233); test: Cholesterol efflux from [3H]cholesterol-labeled ABCA1-expressing J774 mouse macrophages; assay type: cell-based; set-up: to upregulate cellular ABCA1 protein; endogenous in cells; host or cells: J774 mouse macrophages; details: for ABCA1-dependent cholesterol efflux: macrophages with vs without cAMP; for ABCA1-dependent cholesterol efflux at 30 μg/ml: 30 μg/ml peptide; for efficiency of ABCA1 cholesterol efflux (concentration dependence): concentration dependence curves; for cholesterol efflux from macrophages not induced for ABCA1 (non-specific): no cAMP
Sequence of ABCA1 (Mus musculus, UniProt P41233) (P41233 whole entry): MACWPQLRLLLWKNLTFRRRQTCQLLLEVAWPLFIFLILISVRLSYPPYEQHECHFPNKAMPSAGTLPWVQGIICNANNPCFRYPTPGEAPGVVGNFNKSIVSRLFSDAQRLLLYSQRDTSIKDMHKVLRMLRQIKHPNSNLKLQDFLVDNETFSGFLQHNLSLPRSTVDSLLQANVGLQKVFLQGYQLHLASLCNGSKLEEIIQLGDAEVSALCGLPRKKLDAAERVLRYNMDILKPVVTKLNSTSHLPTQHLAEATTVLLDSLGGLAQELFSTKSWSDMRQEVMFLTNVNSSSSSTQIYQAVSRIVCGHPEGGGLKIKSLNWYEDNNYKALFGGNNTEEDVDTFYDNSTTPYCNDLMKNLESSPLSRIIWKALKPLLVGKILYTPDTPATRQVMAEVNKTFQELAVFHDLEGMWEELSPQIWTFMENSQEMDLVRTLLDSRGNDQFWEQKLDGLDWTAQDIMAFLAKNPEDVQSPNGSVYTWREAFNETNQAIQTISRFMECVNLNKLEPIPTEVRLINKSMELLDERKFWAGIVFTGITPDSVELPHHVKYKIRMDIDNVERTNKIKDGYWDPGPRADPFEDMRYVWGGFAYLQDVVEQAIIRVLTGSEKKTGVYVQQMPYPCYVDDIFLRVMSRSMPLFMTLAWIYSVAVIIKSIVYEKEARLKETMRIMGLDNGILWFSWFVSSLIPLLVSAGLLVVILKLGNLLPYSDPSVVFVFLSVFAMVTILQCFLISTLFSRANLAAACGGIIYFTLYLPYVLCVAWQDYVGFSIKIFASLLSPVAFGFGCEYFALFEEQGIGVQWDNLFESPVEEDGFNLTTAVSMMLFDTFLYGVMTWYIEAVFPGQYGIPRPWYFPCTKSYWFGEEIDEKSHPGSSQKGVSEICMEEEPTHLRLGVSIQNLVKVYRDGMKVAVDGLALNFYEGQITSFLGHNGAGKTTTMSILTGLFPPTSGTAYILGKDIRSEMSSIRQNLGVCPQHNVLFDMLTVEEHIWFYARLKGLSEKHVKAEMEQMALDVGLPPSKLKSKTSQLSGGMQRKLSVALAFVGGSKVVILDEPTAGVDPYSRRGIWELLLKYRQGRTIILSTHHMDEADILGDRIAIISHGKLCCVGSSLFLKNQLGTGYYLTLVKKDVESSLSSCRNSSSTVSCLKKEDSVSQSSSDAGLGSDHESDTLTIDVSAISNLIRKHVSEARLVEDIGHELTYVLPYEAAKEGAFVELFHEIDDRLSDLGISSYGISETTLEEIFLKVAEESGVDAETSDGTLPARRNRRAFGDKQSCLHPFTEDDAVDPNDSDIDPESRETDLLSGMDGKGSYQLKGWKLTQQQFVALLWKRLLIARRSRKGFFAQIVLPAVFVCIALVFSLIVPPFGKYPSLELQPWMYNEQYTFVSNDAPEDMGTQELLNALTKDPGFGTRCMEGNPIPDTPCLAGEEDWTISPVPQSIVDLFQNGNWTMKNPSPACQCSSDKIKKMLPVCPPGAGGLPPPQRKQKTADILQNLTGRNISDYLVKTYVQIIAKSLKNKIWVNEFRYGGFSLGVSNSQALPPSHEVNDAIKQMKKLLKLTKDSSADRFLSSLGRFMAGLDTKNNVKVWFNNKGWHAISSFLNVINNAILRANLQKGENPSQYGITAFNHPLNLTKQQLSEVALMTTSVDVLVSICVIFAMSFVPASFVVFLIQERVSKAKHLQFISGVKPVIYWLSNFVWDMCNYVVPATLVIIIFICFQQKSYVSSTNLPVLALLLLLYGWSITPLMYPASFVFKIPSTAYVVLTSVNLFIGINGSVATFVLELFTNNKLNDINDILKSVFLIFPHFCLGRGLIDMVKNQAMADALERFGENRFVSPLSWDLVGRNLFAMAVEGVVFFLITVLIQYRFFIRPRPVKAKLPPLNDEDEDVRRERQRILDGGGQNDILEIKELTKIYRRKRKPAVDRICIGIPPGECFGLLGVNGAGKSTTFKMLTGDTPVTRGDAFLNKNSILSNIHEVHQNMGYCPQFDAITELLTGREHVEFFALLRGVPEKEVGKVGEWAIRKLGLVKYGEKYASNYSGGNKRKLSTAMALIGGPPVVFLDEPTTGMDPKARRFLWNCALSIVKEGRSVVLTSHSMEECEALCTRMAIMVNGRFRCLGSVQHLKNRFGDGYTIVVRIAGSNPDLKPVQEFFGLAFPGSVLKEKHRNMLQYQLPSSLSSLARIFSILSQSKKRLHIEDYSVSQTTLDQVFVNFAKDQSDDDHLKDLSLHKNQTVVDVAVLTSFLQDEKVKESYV
Protocol: In some embodiments, a polypeptide known to mediate cholesterol efflux (e.g., helix 9/10 of Apo A-I) is used to screen for additional mediators of cholesterol efflux in a cell based assay. For example, cell lines in which cholesterol efflux can be enhanced using a cAMP analog that up-regulates ABCA1 protein expression (e.g., J774 macrophages) can conveniently be used to assess the ability of a polypeptide of the present invention to mediate cholesterol efflux. The cells are incubated with labeled cholesterol (e.g., [^3H]cholesterol) under conditions appropriate for cholesterol uptake by the cells. Thus, cAMP or cAMP analogs (e.g., CPT-cAMP) are incubated with the cells for a suitable time before the initiation of cellular cholesterol efflux, i.e., prior to contacting the cells with a test polypeptide. Measurement of labeled cholesterol appearing in the medium is used to determine the cholesterol efflux mediating activity of the test polypeptide.
J774 mouse macrophages labeled with [^3H]cholesterol were treated (20 h) with 22-hydroxycholesterol (10 μM)/cis-retinoic acid (10 μM) to upregulate cellular ABCA1 protein.
Mouse macrophages were labeled with [^3H]cholesterol and treated with a cAMP analog to induce ABCA1 expression. […] Km values were calculated using the Michaelis-Menton equation and GraphPad Prism4 software.
Inverted sequence peptides synthesized with all L-amino acids and all D-amino acids were tested for cholesterol efflux activity using ABCA1 expressing J774 macrophages.
Two peptide analogs were engineered; the first replacing glutamic acid residues (E) at position 8 and 15 with aspartic acid residues (D), i.e., E8, 15>D polypeptides, and the second, replacing E1, 7, 8, 15, 18, 19 with D, i.e., all D (Asp) polypeptide. Cholesterol efflux activity was determined using J774 macrophages treated with and without a cAMP analog to modulate ABCA1 expression.
The impact of the A12>L substitution was also tested for activity, which also expanded non-polar surface area.
1-palmitoyl-2-oleoyl-phosphatidylcholine (POPC) was used to evaluate the cholesterol efflux properties of a formulated polypeptide of the present invention. […] To test cholesterol efflux activity, J774 mouse macrophages were labeled with [^3H]cholesterol and treated with and without cAMP to modulate ABCA1 expression.

ABCA1 [3] = test: Cholesterol efflux in the absence and presence of ABCA1 (mouse macrophages and HeLa cells transfected with ABCA1 cDNA); assay type: cell-based; details: 8 hours, saturating peptide >30-fold Km; for requirement of ABCA1 for cholesterol efflux activity: mouse macrophages and ABCA1-transfected HeLa
From the text: The large excess of polypeptide was provided to determine the extent (if any) of non-specific efflux, in the absence of ABCA1 induction.

[4] = target: ABCA1 of J774 mouse macrophages (mouse, UniProt P41233 1-2261); test: cell-based or functional assay
Sequence of ABCA1 of J774 mouse macrophages (P41233 whole entry): as above

Molecule: NCC(=O)O [Glycine]
- Hydrophobicity [1]: 0.501

Molecule: N=C(N)NCCC[C@H](N)C(=O)O [Arginine]
- Hydrophobicity [1]: 0.000

Molecule: CSCC[C@H](N)C(=O)O [Methionine]
- Hydrophobicity [1]: 0.738

Molecule: C[C@@H](O)[C@H](N)C(=O)O [Threonine]
- Hydrophobicity [1]: 0.450

Molecule: N[C@@H](Cc1ccc(O)cc1)C(=O)O [Tyrosine]
- Hydrophobicity [1]: 0.880

Molecule: O=C(O)[C@@H]1CCCN1 [Proline]
- Hydrophobicity [1]: 0.711

Molecule: N[C@@H](Cc1c[nH]cn1)C(=O)O [Histidine]
- Hydrophobicity [1]: 0.165

Molecule: A12>L: A12>L substitution analogs of SEQ ID NO:4 (EVRSKLEEWFALFREFAEEFLARLKS; ATI-5261 amphipathic alpha-helix polypeptide core sequence selectively binds HDL, high-affinity ligand for ATP-binding cassette transporter A1 (ABCA1), ABCA1-lipid cholesterol efflux, ABCA1-stablization, anti-oxidant and anti- inflammatory activity)
- ABCA1-dependent cholesterol efflux (ABCA1 [2]): stimulated cholesterol efflux from macrophages in an ABCA1-dependent manner

Molecule: Apo A-I: full-length Apolipoprotein AI, polypeptide comprising 243 amino acids
- requirement of ABCA1 for cholesterol efflux activity (ABCA1 [3]): required ABCA1 for activity
- cholesterol efflux at low mass concentrations (ABCA1 [2]; increasing concentrations based on mass): largely ineffective

Molecule: 23-mer: SEQ ID NO:5 with three residues deleted from the C-terminal end (EVRSKLEEWFAAFREFFEEFLAR; S1 amphipathic alpha-helix polypeptide core sequence selectively binds HDL, high-affinity ligand for ATP- binding cassette transporter A1 (ABCA1), ABCA1-lipid cholesterol efflux, ABCA1-stablization, anti-oxidant and anti-inflammatory activity)
- capacity to stimulate cholesterol efflux at 3 μg/ml (ABCA1 [2]; 3 μg/ml lipid-free peptide, ABCA1-expressing macrophages): weakly active

Molecule: SKLRALFEEAFERFAAFWEELKSRVE (inverted peptide, ATI-5261 in reverse order)
- ABCA1-dependent cholesterol efflux at 30 μg/ml (ABCA1 [2]): stimulated cholesterol efflux in an ABCA1-dependent manner

Molecule: NC(=O)C[C@H](N)C(=O)O [Asparagine]
- Hydrophobicity [1]: 0.236

Molecule: N[C@@H](CCC(=O)O)C(=O)O [Glutamate]
- Hydrophobicity [1]: 0.043

Molecule: R3→Q: SEQ ID NO:5 with arginine 3 replaced by glutamine (EVQSKLEEWFAAFREFFEEFLARLKS; S1 amphipathic alpha-helix polypeptide core sequence selectively binds HDL, high-affinity ligand for ATP- binding cassette transporter A1 (ABCA1), ABCA1-lipid cholesterol efflux, ABCA1-stablization, anti-oxidant and anti-inflammatory activity)
- ABCA1-dependent cholesterol efflux at 30 μg/ml (ABCA1 [2]): mediated cholesterol efflux in an ABCA1 dependent manner
- efficiency of ABCA1 cholesterol efflux (concentration dependence) (ABCA1 [2]): high efficiency

Molecule: E8, 15→Q8, 15: SEQ ID NO:5 with two glutamate residues replaced with glutamine (EVRSKLEQWFAAFRQFFEEFLARLKS; S1 amphipathic alpha-helix polypeptide core sequence selectively binds HDL, high-affinity ligand for ATP- binding cassette transporter A1 (ABCA1), ABCA1-lipid cholesterol efflux, ABCA1-stablization, anti-oxidant and anti-inflammatory activity)
- cholesterol efflux from macrophages not induced for ABCA1 (non-specific) (ABCA1 [2]): further augmented

Molecule: R23→Q: SEQ ID NO:5 with arginine 23 replaced by glutamine (EVRSKLEEWFAAFREFFEEFLAQLKS; S1 amphipathic alpha-helix polypeptide core sequence selectively binds HDL, high-affinity ligand for ATP- binding cassette transporter A1 (ABCA1), ABCA1-lipid cholesterol efflux, ABCA1-stablization, anti-oxidant and anti-inflammatory activity)
- ABCA1-dependent cholesterol efflux at 30 μg/ml (ABCA1 [2]): mediated cholesterol efflux in an ABCA1 dependent manner
- efficiency of ABCA1 cholesterol efflux (concentration dependence) (ABCA1 [2]): high efficiency

Molecule: C[C@H](N)C(=O)O [Alanine]
- Hydrophobicity [1]: 0.616

Molecule: CC[C@H](C)[C@H](N)C(=O)O [Isoleucine]
- Hydrophobicity [1]: 0.943

Molecule: NCCCC[C@H](N)C(=O)O [Lysine]
- Hydrophobicity [1]: 0.283

Molecule: EVRSKLEEWFAAFREFFEEFLARLKS (S1 amphipathic alpha-helix polypeptide core sequence selectively binds HDL, high-affinity ligand for ATP- binding cassette transporter A1 (ABCA1), ABCA1-lipid cholesterol efflux, ABCA1-stablization, anti-oxidant and anti-inflammatory activity) [SEQ ID NO:5]
- non-specific efflux activity in the absence of ABCA1 (ABCA1 [3]): minimal
- requirement of ABCA1 for cholesterol efflux activity (ABCA1 [3]): required ABCA1 for efflux activity
- cholesterol efflux efficiency/potency on per molecule (molar) basis versus apolipoproteins (ABCA1 [2]; Km in molar units): activity similar to full-length Apo A-I, Apo E, and the C-terminal (CT) domain of Apo E
- cholesterol efflux from macrophages not induced for ABCA1 (non-specific) (ABCA1 [2]): Low efflux

Molecule: N[C@@H](Cc1c[nH]c2ccccc12)C(=O)O [Tryptophan]
- Hydrophobicity [1]: 0.878

Molecule: R3>L: SEQ ID NO:4 polypeptides with arginine at position 3 replaced by leucine (EVLSKLEEWFAAFREFAEEFLARLKS; ATI-5261 amphipathic alpha-helix polypeptide core sequence selectively binds HDL, high-affinity ligand for ATP-binding cassette transporter A1 (ABCA1), ABCA1-lipid cholesterol efflux, ABCA1-stablization, anti-oxidant and anti- inflammatory activity)
- ABCA1-dependent cholesterol efflux (ABCA1 [2]): relatively high-levels of cholesterol efflux
- cholesterol efflux from macrophages not induced for ABCA1 (non-specific) (ABCA1 [2]): low-levels of cholesterol efflux

Molecule: N[C@@H](Cc1ccccc1)C(=O)O [Phenylalanine]
- Hydrophobicity [1]: 1.00

Molecule: CC(C)[C@H](N)C(=O)O [Valine]
- Hydrophobicity [1]: 0.825

Molecule: EVRSKLEDWFAAFRDFFEEFLARLKS [E8, 15>D analog of the polypeptide of SEQ ID NO:5]
- cholesterol efflux: concentration giving maximal efflux [4]: 3 µg/mL

Molecule: EVRAKLEEWFAAFREFAEEFLARL [24-mer core peptide of SEQ ID NO:4 with the S4>A substitution]
- cholesterol efflux: concentration giving maximal efflux [4]: 3 µg/mL

Molecule: EVRAKLEEWFAAFREFAEEFLARLKA [S4, 26>A analog of the polypeptide of SEQ ID NO:4]
- cholesterol efflux: concentration giving maximal efflux [4]: 3 µg/mL

Molecule: DVRSKLDDWFAAFRDFFDDFLARLKS [E1, 7, 8, 15, 18, 19>D analog of the polypeptide of SEQ ID NO:5]
- cholesterol efflux: concentration giving maximal efflux [4]: 3 µg/mL

Molecule: [dS][dK][dL][dR][dA][dL][dF][dE][dE][dA][dF][dE][dR][dF][dA][dA][dF][dW][dE][dE][dL][dK][dS][dR][dV][dE] [inverted sequence peptide of SEQ ID NO:20, all D-amino acids]
- cholesterol efflux: concentration giving maximal efflux [4]: 3 µg/mL

Molecule: EVKSKLEEWFAAFKEFFEEFLAKLKS [R3, 14, 23→K3, 14, 23 analog of the polypeptide of SEQ ID NO:5]
- cholesterol efflux: concentration giving maximal efflux [4]: 3 µg/mL

Molecule: EVRSKLEEWFAAFREFAEEFLARLKY [S26>Y analog of the polypeptide of SEQ ID NO:4]
- cholesterol efflux: concentration giving maximal efflux [4]: 3 µg/mL

Molecule: SKLRALFEEAFERFAAFWEELKSRVE [inverted sequence peptide of SEQ ID NO:20, all L-amino acids]
- cholesterol efflux: concentration giving maximal efflux [4]: 3 µg/mL

Molecule: EVRSKLEEWFAAFREFFEEFLARL [24-mer polypeptide of SEQ ID NO:5 lacking Lys25-Ser26]
- cholesterol efflux: concentration giving maximal efflux [4]: 3 µg/mL

Molecule: [dE][dV][dR][dS][dK][dL][dE][dE][dW][dF][dA][dA][dF][dR][dE][dF][dA][dE][dE][dF][dL][dA][dR][dL][dK][dS] [polypeptide of SEQ ID NO:4 composed of all D-amino acids]
- cholesterol efflux: concentration giving maximal efflux [4]: 3 µg/mL
